One block for each molecule: values may come before it. Square brackets hold non-standard residues; d marks the D form. Ends that are not written are not given here. * marks the point of attachment. dimethylgly‑t‑butylgly‑cys‑gly = CN(C)CC(=O)N[C@H](C(=O)N[C@@H](CS)C(=O)NCC(=O)*)C(C)(C)C; Cyclopropanecarbonyl = O=C(C1CC1)*; Nle = CCCC[C@H](N)C(=O)O; For = O=C*
What was measured:
[1] = molecular target: N-formyl-methionyl-leucyl-phenylalanine (fMLF) receptor on elicited rat peritoneal neutrophils (rat) (UniProt D4A7Q2); assay: cell-based or functional assay
[2] = molecular target: N-formyl-methionyl-leucyl-phenylalanine (fMLF) receptor on elicited rat peritoneal neutrophils (rat) (UniProt D4A7Q2); assay: saturation binding of 3H-fMLF to elicited rat peritoneal neutrophils, one-site fit (Prism)
[3] = molecular target: N-formyl-methionyl-leucyl-phenylalanine (fMLF) receptor on human neutrophils (human) (UniProt P21462); assay: competition with 6 nM 3H-fMLF for binding to human neutrophils
[4] = molecular target: N-formyl-methionyl-leucyl-phenylalanine (fMLF) receptor on elicited rat peritoneal neutrophils (rat) (UniProt D4A7Q2); assay: Scatchard analysis of 3H-fMLF saturation binding to elicited rat peritoneal neutrophils
[5] = molecular target: N-formyl-methionyl-leucyl-phenylalanine (fMLF) receptor on elicited rat peritoneal neutrophils (rat) (UniProt D4A7Q2); assay: competition with 6 nM 3H-fMLF for binding to elicited rat peritoneal neutrophils, 4 C, filter harvest
[6] = molecular target: N-formyl-methionyl-leucyl-phenylalanine (fMLF) receptor on elicited rat peritoneal neutrophils (rat) (UniProt D4A7Q2); assay: Scatchard transformation of the 3H-fMLF binding isotherm on elicited rat peritoneal neutrophils
[7] = molecular target: T1, N-formyl-methionyl-leucyl-phenylalanine (fMLF) receptor on elicited rat peritoneal neutrophils (rat, UniProt D4A7Q2 1-355); assay: cell-based or functional assay
T1 sequence: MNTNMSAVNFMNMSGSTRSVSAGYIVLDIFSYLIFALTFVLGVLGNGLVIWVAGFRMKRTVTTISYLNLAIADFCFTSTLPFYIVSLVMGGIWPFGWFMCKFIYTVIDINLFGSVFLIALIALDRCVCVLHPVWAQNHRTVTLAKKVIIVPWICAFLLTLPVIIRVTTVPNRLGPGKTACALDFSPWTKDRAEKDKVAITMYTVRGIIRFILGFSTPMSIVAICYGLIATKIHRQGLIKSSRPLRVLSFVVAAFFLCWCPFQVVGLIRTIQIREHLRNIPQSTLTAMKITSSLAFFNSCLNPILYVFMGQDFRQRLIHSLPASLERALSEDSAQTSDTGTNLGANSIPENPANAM

[8] = molecular target: T1, N-formyl-methionyl-leucyl-phenylalanine …; assay: competition with 6 nM 3H-fMLF on elicited rat neutrophils
Method: (§1) Neutrophils isolated by peritoneal lavage were washed twice with 1 mL of HBSS− (without calcium chloride, magnesium chloride and magnesium sulfate) and centrifuged for ten minutes at 2000 rpms following each wash. PMNs utilized in functional assays were centrifuged at 25° C. while those used in binding assays were centrifuged at 4° C. to prevent internalization. A cold H_2O RBC lysis was then performed with the addition of 9 mL of sterile ice-cold H_2O and 1 mL of phosphate buffered saline (PBS) solution containing 0.1 M phosphate buffer, 0.027 M KCl and 1.37 M NaCl following resuspension of the sample in 1 mL of HBSS−. Centrifugation was subsequently performed for ten minutes at 1600 rpms. White blood cell (WBC) differential stain containing saline, 2% acidic acid and phenol violet dye was used to identify the neutrophil population and trypan blue exclusion was used to determine viability of cells.
(§2) Total binding in the competition assays was assessed in the presence of 1.0 ×10^6 PMNs per sample while non-specific binding was determined in the absence of cells. Each condition was performed in quadruplicate.

[9] = molecular target: T1, N-formyl-methionyl-leucyl-phenylalanine …; assay: competition with 6 nM 3H-fMLF for binding to elicited rat peritoneal neutrophils, 4 C, filter harvest
Method: as §1, §2

[10] = molecular target: T2, N-formyl-methionyl-leucyl-phenylalanine (fMLF) receptor on human neutrophils (human, UniProt P21462 1-350); assay: competition with 6 nM 3H-fMLF for binding to human neutrophils
T2 construct: whole, on cells; Native receptor on whole neutrophils from healthy volunteers; also called Human FPR; formyl peptide receptor
T2 sequence (looked up): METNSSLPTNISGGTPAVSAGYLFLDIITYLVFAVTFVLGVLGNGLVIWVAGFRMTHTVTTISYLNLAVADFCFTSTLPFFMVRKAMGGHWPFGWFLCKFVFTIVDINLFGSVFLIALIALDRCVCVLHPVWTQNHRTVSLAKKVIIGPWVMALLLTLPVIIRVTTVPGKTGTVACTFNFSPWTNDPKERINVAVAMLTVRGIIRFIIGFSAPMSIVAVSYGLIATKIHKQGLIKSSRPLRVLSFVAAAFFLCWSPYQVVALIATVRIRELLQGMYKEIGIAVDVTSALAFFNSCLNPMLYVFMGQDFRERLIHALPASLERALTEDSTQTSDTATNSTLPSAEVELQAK

Molecule: 2-methoxyacetyl-NleLFK (peptide)
MPO release, % Control (1 uM) [1]: 95 % control | MPO release, % Control (10 uM) [1]: 97.1 % control

Molecule: 2-quinoxazoyl-NleLFK (peptide)
% Control MPO Release (10 uM capping group + 0.1 uM fMLF) [1]: 240 % control | % Control MPO release (1 uM capping group + 0.1 uM fMLF) [1]: 323 % control | MPO release, % Control (1 uM) [1]: 117 % control | MPO release, % Control (10 uM) [1]: 130 % control

Molecule: 3-but-1-enoxycarbonyl-NleLFK (peptide)
MPO release, % Control (1 uM) [1]: 134 % control | MPO release, % Control (10 uM) [1]: 229 % control

Molecule: N-formyl-methionyl-leucyl-phenylalanine (peptide)
EC50 of myeloperoxidase release from elicited rat PMNs [1]: 110 nM | Binding Sites/Cell (binding sites/cell) [2]: 40000 | Kd [2]: 6.1 nM | IC50 [3]: 5 nM | Kd [4]: 6.4 nM | binding sites per cell (binding sites per cell) [4]: 41000 | IC50 [5]: 50 nM | x-intercept of Scatchard transformation [6]: 34

Molecule: N-phenyl-N-methylcarbamoyl-NleLFK (peptide)
% Control MPO Release (10 uM capping group + 0.1 uM fMLF) [1]: 121 % control | % Control MPO release (1 uM capping group + 0.1 uM fMLF) [1]: 171 % control | MPO release, % Control (1 uM) [1]: 94.7 % control | MPO release, % Control (10 uM) [1]: 68 % control

Molecule: N-tert-butyloxycarbonylated-methionyl-leucyl-phenylalanine (peptide)
IC50 [5]: 9300 nM

Molecule: adamantylcarbonyl-NleLFK (peptide)
% Control MPO Release (10 uM capping group + 0.1 uM fMLF) [1]: 129 % control | % Control MPO release (1 uM capping group + 0.1 uM fMLF) [1]: 132 % control | MPO release, % Control (1 uM) [1]: 70.5 % control | MPO release, % Control (10 uM) [1]: 71.7 % control

Molecule: furoyl-NleLFK (peptide)
MPO release, % Control (1 uM) [1]: 93 % control | MPO release, % Control (10 uM) [1]: 102 % control

B1: ReO-CyclopropylCONH-nleu-leu-phe-trp-his-lys(dimethylgly-t-butylgly-cys-gly)-gly-OH (peptide)
peptide: Cyclopropanecarbonyl-[Nle]LFWHK(dimethylgly‑t‑butylgly‑cys‑gly)G-OH
modifications: also: ReO (rhenium oxo) complex with Lys6 side-chain chelator
notes: Rhenium complex as tested; also called ReORP553 17-04; RP553-17-04
fold more potent than N-t-BocMLF [8]: ≥ 1.5 fold | IC50 [9]: 1770 nM

B2: ReO-CyclopropylCONH-nleu-leu-phe-ser-glu-lys(dimethylgly-t-butylgly-cys-gly)-gly-OH (peptide)
peptide: Cyclopropanecarbonyl-[Nle]LFSEKG-OH
modifications: not fully specified (residue 6); printed as ReO-CyclopropylCONH-nleu-leu-phe-ser-glu-lys(dimethylgly-t-butylgly-cys-gly)-gly-OH; also: ReO (rhenium oxo) complex on the side-chain chelate
notes: Rhenium complex as tested; also called ReORP553 17-02; RP553-17-02
fold more potent than N-t-BocMLF [8]: ≥ 1.5 fold | IC50 [9]: 2310 nM

B7: ReO-CyclopropylCONH-nleu-leu-phe-tyr-his-lys(dimethylgly-t-butylgly-cys-gly)-gly-OH (peptide)
peptide: Cyclopropanecarbonyl-[Nle]LFYHK(dimethylgly‑t‑butylgly‑cys‑gly)G-OH
modifications: also: ReO (rhenium oxo) complex with Lys6 side-chain chelator
notes: Rhenium complex as tested; also called ReORP553 17-06; RP553-17-06
fold more potent than N-t-BocMLF [8]: ≥ 1.5 fold | IC50 [9]: 1220 nM

B8: ReO-CyclopropylCONH-nleu-leu-phe-trp-lys-lys(dimethylgly-t-butylgly-cys-gly)-gly-OH (peptide)
peptide: Cyclopropanecarbonyl-[Nle]LFWKK(dimethylgly‑t‑butylgly‑cys‑gly)G-OH
modifications: also: ReO (rhenium oxo) complex with Lys6 side-chain chelator
notes: Rhenium complex as tested; also called ReORP553 17-07; RP553-17-07
fold more potent than N-t-BocMLF [8]: ≥ 1.5 fold | IC50 [9]: 760 nM

The remaining lines, values ahead:

MPO release, % Control (1 uM) [1]: 118 % control | MPO release, % Control (10 uM) [1]: 176 % control
Molecule: 2-acetamido-5-thiazolesulfonyl-NleLFK (peptide)

% Control MPO Release (10 uM capping group + 0.1 uM fMLF) [1]: 250 % control | % Control MPO release (1 uM capping group + 0.1 uM fMLF) [1]: 283 % control | MPO release, % Control (1 uM) [1]: 114 % control | MPO release, % Control (10 uM) [1]: 110 % control
Molecule: N,N-diethylcarbamoyl-NleLFK (peptide)

% Control MPO Release (10 uM capping group + 0.1 uM fMLF) [1]: 186 % control | % Control MPO release (1 uM capping group + 0.1 uM fMLF) [1]: 322 % control | MPO release, % Control (1 uM) [1]: 143 % control | MPO release, % Control (10 uM) [1]: 125 % control
Molecule: N,N-diphenylcarbamoyl-NleLFK (peptide)

MPO release, % Control (1 uM) [1]: 108 % control | MPO release, % Control (10 uM) [1]: 91.8 % control
Molecule: cyclopropylcarbonyl-NleLFK (peptide)

% Control MPO Release (10 uM capping group + 0.1 uM fMLF) [1]: 109 % control | % Control MPO release (1 uM capping group + 0.1 uM fMLF) [1]: 162 % control | MPO release, % Control (1 uM) [1]: 84.1 % control | MPO release, % Control (10 uM) [1]: 59.9 % control
Molecule: fluorenylmethylcarbonyl-NleLFK (peptide)

MPO release, % Control (1 uM) [1]: 139 % control | MPO release, % Control (10 uM) [1]: 120 % control
Molecule: phenylthioacetyl-NleLFK (peptide)

MPO release, % Control (1 uM) [1]: 133 % control | MPO release, % Control (10 uM) [1]: 196 % control
Molecule: trans-cinnamoyl-NleLFK (peptide)

EC50 of myeloperoxidase release from elicited rat PMNs [7]: 140 nM
Molecule: For-MLFK [N-formyl-methionyl-leucyl-phenylalanyl-lysine]

fold more potent than N-t-BocMLF [8]: ≥ 1.5 fold | IC50 [9]: 1010 nM
B3: ReO-CyclopropylCONH-nleu-leu-phe-ser-his-lys(dimethylgly-t-butylgly-cys-gly)-gly-OH (peptide)
peptide: Cyclopropanecarbonyl-[Nle]LFSHK(dimethylgly‑t‑butylgly‑cys‑gly)G-OH
modifications: also: ReO (rhenium oxo) complex with Lys6 side-chain chelator
notes: Rhenium complex as tested; also called ReORP553 17-05; RP553-17-05

fold more potent than N-t-BocMLF [8]: ≥ 1.5 fold | IC50 [9]: 4950 nM
B4: ReO-CyclopropylCONH-nleu-leu-phe-ser-lys-lys(dimethylgly-t-butylgly-cys-gly)-gly-OH (peptide)
peptide: Cyclopropanecarbonyl-[Nle]LFSKK(dimethylgly‑t‑butylgly‑cys‑gly)G-OH
modifications: also: ReO (rhenium oxo) complex with Lys6 side-chain chelator
notes: Rhenium complex as tested; also called ReORP553 17-08; RP553-17-08

fold more potent than N-t-BocMLF [8]: ≥ 1.5 fold | IC50 [9]: 5930 nM
B5: ReO-CyclopropylCONH-nleu-leu-phe-tyr-lys-lys(dimethylgly-t-butylgly-cys-gly)-gly-OH (peptide)
peptide: Cyclopropanecarbonyl-[Nle]LFYKK(dimethylgly‑t‑butylgly‑cys‑gly)G-OH
modifications: also: ReO (rhenium oxo) complex with Lys6 side-chain chelator
notes: Rhenium complex as tested; also called ReORP553 17-09; RP553-17-09

fold greater binding affinity than N-t-BocMLF [8]: ~12 fold | fold less binding affinity than fMLF [8]: ~15 fold | fold more potent than N-t-BocMLF [8]: ≥ 1.5 fold | IC50 [9]: 730 nM | IC50 [10]: 140 nM
B6: ReO-CyclopropylCONH-nleu-leu-phe-trp-glu-lys(dimethylgly-t-butylgly-cys-gly)-gly-OH (peptide)
peptide: Cyclopropanecarbonyl-[Nle]LFWEK(dimethylgly‑t‑butylgly‑cys‑gly)G-OH
modifications: also: ReO (rhenium oxo) complex with Lys6 side-chain chelator
notes: Rhenium complex as tested; also called ReORP553 17-01; RP553-17-01
